According to paper PMC3103399 (Molecular Biology of the Cell, 2011):
Non-standard residues stand in square brackets, D forms with d. No end group written: not given here. pY = N[C@@H](Cc1ccc(OP(=O)(O)O)cc1)C(=O)O

Target: T1, GST-nephrin-CD (residues 1102–1252) (rat, UniProt Q9R044 1102-1252)
T1 sequence (looked up): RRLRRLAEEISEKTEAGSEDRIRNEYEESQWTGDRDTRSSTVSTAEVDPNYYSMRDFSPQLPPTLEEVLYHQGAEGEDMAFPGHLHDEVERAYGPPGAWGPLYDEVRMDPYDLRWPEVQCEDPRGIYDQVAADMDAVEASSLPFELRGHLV
Assay: pull-down

CLASPA[pY]LSLSSE [phosphorylated TRPC6 Y284 peptide]
binding result: binds
